Measured values from IntAct's records for PubMed 16628218.

B1: Beta-chimaerin (Homo sapiens), P52757 (parent)
chain: MAASSNSSLSGSSVSSDAEEYQPPIWKSYLYQLQQEAPRPKRIICPREVENRPKYYGREFHGIISREQADELLGGVEGAYILRESQRQPGCYTLALRFGNQTLNYRLFHDGKHFVGEKRFESIHDLVTDGLITLYIETKAAEYISKMTTNPIYEHIGYATLLREKVSRRLSRSKNEPRKTNVTHEEHTAVEKISSLVRRAALTHNDNHFNYEKTHNFKVHTFRGPHWCEYCANFMWGLIAQGVRCSDCGLNVHKQCSKHVPNDCQPDLKRIKKVYCCDLTTLVKAHNTQRPMVVDICIREIEARGLKSEGLYRVSGFTEHIEDVKMAFDRDGEKADISANVYPDINIITGALKLYFRDLPIPVITYDTYSKFIDAAKISNADERLEAVHEVLMLLPPAHYETLRYLMIHLKKVTMNEKDNFMNAENLGIVFGPTLMRPPEDSTLTTLHDMRYQKLIVQILIENEDVLF

Variants of: B1
Conditions: with rac1_human RAC1, P63000
For Q32A, the “effect of a mutation on the interaction” value was “increasing interaction”. C264A was tested, and the “effect of a mutation on the interaction” value was “disrupting interaction”.
